For orientation: EC50 means the midpoint of the concentration-response curve.

The subject of assay [1] is E8 chick ciliary ganglion neurons. The experiment in a line: Survival of dissociated E8 chick ciliary ganglion neurons. The format is cell-based. The text has this:
Ciliary neurotrophic factor activity may be evaluated using any CNTF-sensitive in vivo or in vitro system known in the art. For example, and not by way of limitation, in vitro systems have been developed which measure CNTF activity by quantitating 24-hour survival of embryonic (E8) chick ciliary ganglion (CG) neurons in monolayer cultures.
For example, ciliary ganglia may be collected from E8 chick embryos, dissociated (yielding approximately 20,000 cells per ganglion) and then diluted in HEBM medium containing 20 percent horse serum as described in Varon et al. (1979, Brain Res. 173:29-45). About fifty microliters of cell suspension containing neurons (2,000 cells) may then be seeded into microliter dishes and putative CNTF activity may be added. Culture plates may then be maintained at 37° C. in 5% CO2 for 24 hours, after which the cultures may be fixed by the addition of 200 μl 2 per cent glutaraldehyde in HEBM medium, and the number of surviving neurons may be determined visually by direct count under phase contrast microscopy.
Chick embryo ciliary ganglion cultures were created and maintained according to the method set forth in (Hughes et al., 1988, Nature 335 : 70-73).
(§1) Biological activity of recombinant CNTF was assayed on explants of chick embryo dorsal root ganglia (DRG) and dissociated cultures of ciliary ganglion (CG) neurons as described in Lindsay and Rohrer (1985, Devel. Biol 112:30-48). Briefly, DRG were dissected from chick embryos of 10 days incubation (E10) and 5-6 ganglia were explanted in 1 ml of a collagen gel matrix in 35 mm tissue culture dishes. After the gel had set, 1 ml of tissue culture growth medium F14 (Imperial Labs., U.K.) supplemented with 5% heat-inactivated horse serum (GIBCO) was added before adding human CNTF (1-20 l) to a final concentration of 100 pg to 100 ng/ml. CG were dissected from E8 chick embryos and incubated for 30 min in 0.25% trypsin (Worthington) in calcium- and magnesium-free phosphate buffered saline. The ganglia were then washed three times in F14 medium containing 5% horse serum before being dissociated to a single cell suspension by trituration through the bore of a Pasteur pipette. Enrichment for CG neurons was achieved by plating the cell suspension for 3.5 hr in a 60 mm dish, during which non-neuronal cells (fibroblasts and Schwann cells) attached firmly to the plastic while phase-bright neurons remained in suspension. The purified neurons were plated on polyornithine-laminin-coated 35 mm culture dishes at 8,000-10,000 neurons/dish. In explant cultures CNTF activity was determined by assessing the extent of fiber outgrowth in treated cultures compared to controls. Fiber outgrowth was scored on a scale of 0 to 5+, by comparing cultures to photographs of a dose-response of explanted DRG and NGF. In dissociated CG neuron cultures, CNTF activity was determined by counting at 48 hr the percentage of process-bearing neurons in control and CNTF-treated cultures. In all cases results were derived from triplicate cultures.

For assay [2], the system named is dorsal root ganglia and/or dissociated ciliary neurons. The experiment in a line: Biological activity of modified and truncated CNTF proteins (rapid bacterial extracts). The following applies: soluble protein extracted from induced bacteria hosting each plasmid; compared with full length parental protein. The format is cell-based, chick. The procedure: Samples for gel electrophoresis were prepared by resuspending cell pellets from 0.5 ml culture OD590=2 in 0.16 ml lysis buffer (100 mM TrisHCl, 10% glycerol, 4% sodium dodecyl sulfate, 1 mM dithiothreitol, 0.5 mg/ml bromophenol blue, pH 6.8) and boiling for 5 minutes.
as §1
Biological activity was assayed on dorsal root ganglia and/or dissociated ciliary neurons was determined as described in section 12.1.6. Soluble protein was extracted from induced bacteria hosting each plasmid by the “rapid” protein extraction method described in section 12.1.3.

Assay [3] concerns chick embryonic spinal motorneurons. The experiment in a line: Survival of chick embryonic spinal motorneurons in culture. The following applies: for Survival: after 3 days in culture, one concentration per molecule, Table VI, CNTF rat, rec.; for survival effect on motoneurons: supramaximal concentrations, NT-3 produced by transfected Cos-cells. It is filed as cell-based. Also noted: key to Survival: −: not significantly different from control (survival: 8.3 ± 3.8%, mean ± SD, n = 18); ±: about 15-20% (statistically significant from each blank control, p < 0.01); + +: about 35-55%; + ++: about 55-75%. The procedure:
Motorneuron columns were dissected under a stereomicroscope from the lumbar part of the spinal cord of chick embryos on the 6th day of embryonic development and stored in cold calcium and magnesium-free Hanks balanced salt solution supplemented with glucose (4 g/l) (HBSS). The tissues were washed with HBSS and treated with 0.03% trypsin in HBSS at 37° C. for 20 min with gentle shaking, rinsed with cold HBSS and triturated mildly in 3 steps of 8-passage agitation in 1 ml of cold 0.1% soybean trypsin inhibitor (Sigma) in HBSS through a fire-polished siliconized Pasteur pipette. Each supernatant cell suspension was filtered through 50 μm-Nylon mesh, pooled and layered onto 4 ml of cold 6.8% metrizamide (Fluka) in HBSS-25 mM HEPES (pH7.4) in a 12 ml-siliconized conical glass tube. The tube was centrifuged at 400 g for 15 min at 4° C. and the intermediate layer (0.5 ml) was collected into another siliconized tube containing 6.5 ml of cold culture medium (a mixture of glucose (4 g/l)-supplemented Leibovitz's L-15 medium (Gibco), 0.15 M sodium bicarbonate, heat-inactivated and filtered horse serum and penicillin G (10^5 units/ml) at the ratio of 75:15:10:0.1, freshly prepared and buffered with 5% CO2.) After centrifugation at 100×g for 7 min at 4° C., the supernatant was removed and the cells were gently resuspended in culture medium and plated in Greiner 4-well culture dishes (well diameter, 10 mm; C. A. Greiner und Sohne GmbH, Nurtingen, West Germany) at 1000-2000 cells/well. The dishes had been precoated with poly-DL-ornithine (Sigma, 0.5 mg in 0.15 M sodium borate buffer (pH 8.3) overnight at 4° C., rinsed twice with phosphate-buffered saline (PBS) and subsequently coated with laminin (Gibco; 10 μg/ml in the serum-depleted culture medium) and placed in a 5% CO2-incubator until cell plating (5-6 hrs). Cells were incubated at 37° C. in a humidified 5% CO2- and 95% air-incubator. Samples were added one hr after plating and the culture medium changed after 24 hrs and 72 hrs. The initial cell numbers were counted 3 hrs after plating.
In some experiments motor neurons were retrogradely labeled with a fluorescent dye in vivo before cell preparation (U. Dohrman et al., 1986, Dev. Biol. 118:209-221) to identify the motor neuron cell population. A small hole was made in the shell of eggs which had been incubated for 5 days. Small pieces of rhodamine isothiocyanate crystals (Sigma) were inserted at two or three places into each hind limb thigh and the egg hole was sealed with a cellophane tape. The eggs were incubated for another 24 hrs. Some of the operated embryos were then processed for frozen sections after formaldehyde fixation. […] The other embryos were used for cell preparation using the method described above (18.1.1). After 5 hrs in culture cells were rinsed with warm HBSS, fixed with 4% formaldehyde in PBS at room temperature for 20 min, rinsed with PBS and then mounted in glycerol-PBS (1:1) with glass coverslips. Of the total cells approximately 83% were labeled and identified as motorneurons (FIG. 42.) Most of these labeled motorneurons were large cells and the rest were intermediate-size cells. No small cells were labeled. On the other hand, in experiments in which cells were not labeled with a fluorescent dye about 70% of the total cells were large phase-bright cells with round cell somas, about 20% were intermediate-size neurons (most of them may be motorneurons) and about 10% were small immature neurons (they have neuron-like processes with growth cones but have phase-dark semi-flat cell somas). Non-neuronal cells were either not present or accounted for less than 2%. Taken together, one may conclude that at least 83% of the cells are motorneurons while the remainder consists of non-labeled motorneurons, a small number of unidentified intermediate-size neurons and about 10% immature small neurons. […]

B1: CNTF purified from rat sciatic nerve: native CNTF protein purified from rat sciatic nerve (protein, UniProt P20294 1-200, looked up)
Ciliary neurotrophic factor: MAFAEQTPLTLHRRDLCSRSIWLARKIRSDLTALMESYVKHQGLNKNINLDSVDGVPVASTDRWSEMTEAERLQENLQAYRTFQGMLTKLLEDQRVHFTPTEGDFHQAIHTLMLQVSAFAYQLEELMVLLEQKIPENEADGMPATVGDGGLFEKKLWGLKVLQELSQWTVRSIHDLRVISSHQMGISALESHYGAKDKQM
In the case of B1, the “lowest concentration at which activity was detectable” value in assay [1] (dissociated, neuron-enriched E8 chick ciliary ganglion cultures) came to 5 pg/mL. For the same molecule, the EC50 in assay [1] (neuronal survival, E8 chick ciliary ganglion cultures) turned out to be 0.08 ng/mL.

B2: pRPN108: hCNTF with alanine in place of cysteine at amino acid 17, encoded in plasmid pRPN108 (protein, UniProt P26441 1-200, looked up, variant C17A)
Ciliary neurotrophic factor: MAFTEHSPLTPHRRDLASRSIWLARKIRSDLTALTESYVKHQGLNKNINLDSADGMPVASTDQWSELTEAERLQENLQAYRTFHVLLARLLEDQQVHFTPTEGDFHQAIHTLLLQVAAFAYQIEELMILLEYKIPRNEADGMPINVGDGGLFEKKLWGLKVLQELSQWTVRSIHDLRFISSHQTGIPARGSHYIANNKKM
For the molecule B2, the biological activity entry in assay [2] is reported as “as active as the full length protein”.

B3: EGF: EGF (mouse) (protein, UniProt P01132 29-1217, looked up)
Pro-epidermal growth factor: WQTGNCQPGPLERSERSGTCAGPAPFLVFSQGKSISRIDPDGTNHQQLVVDAGISADMDIHYKKERLYWVDVERQVLLRVFLNGTGLEKVCNVERKVSGLAIDWIDDEVLWVDQQNGVITVTDMTGKNSRVLLSSLKHPSNIAVDPIERLMFWSSEVTGSLHRAHLKGVDVKTLLETGGISVLTLDVLDKRLFWVQDSGEGSHAYIHSCDYEGGSVRLIRHQARHSLSSMAFFGDRIFYSVLKSKAIWIANKHTGKDTVRINLHPSFVTPGKLMVVHPRAQPRTEDAAKDPDPELLKQRGRPCRFGLCERDPKSHSSACAEGYTLSRDRKYCEDVNECATQNHGCTLGCENTPGSYHCTCPTGFVLLPDGKQCHELVSCPGNVSKCSHGCVLTSDGPRCICPAGSVLGRDGKTCTGCSSPDNGGCSQICLPLRPGSWECDCFPGYDLQSDRKSCAASGPQPLLLFANSQDIRHMHFDGTDYKVLLSRQMGMVFALDYDPVESKIYFAQTALKWIERANMDGSQRERLITEGVDTLEGLALDWIGRRIYWTDSGKSVVGGSDLSGKHHRIIIQERISRPRGIAVHPRARRLFWTDVGMSPRIESASLQGSDRVLIASSNLLEPSGITIDYLTDTLYWCDTKRSVIEMANLDGSKRRRLIQNDVGHPFSLAVFEDHLWVSDWAIPSVIRVNKRTGQNRVRLQGSMLKPSSLVVVHPLAKPGADPCLYRNGGCEHICQESLGTARCLCREGFVKAWDGKMCLPQDYPILSGENADLSKEVTSLSNSTQAEVPDDDGTESSTLVAEIMVSGMNYEDDCGPGGCGSHARCVSDGETAECQCLKGFARDGNLCSDIDECVLARSDCPSTSSRCINTEGGYVCRCSEGYEGDGISCFDIDECQRGAHNCGENAACTNTEGGYNCTCAGRPSSPGLSCPDSTAPSLLGEDGHHLDRNSYPGCPSSYDGYCLNGGVCMHIESLDSYTCNCVIGYSGDRCQTRDLRWWELRHAGYGQKHDIMVVAVCMVALVLLLVLGMWGTYYYRTRKQLSNPPKNPCDEPSGSVSSSGPNSSSGAAVASCPQPWFVVLEKHQDPKNGSLPADGTNGAVVDAGLSPSLQLGSVHLTSWRQKPHIDGMGTGQSCWIPPSSDRGPQEIEGNSHLPSYRPVGPEKLHSLQSANGSCHERAPDLPRQTEPVQ
modifications: Pro-epidermal growth factor
For B3, in assay [3], the Survival result was “−” and the “survival effect on motoneurons” value is given as “no discernable effect”.

B4: IFNc: IFNc (rat, rec.) (protein, UniProt P01581 23-156, looked up)
Interferon gamma: QGTLIESLESLKNYFNSSSMDAMEGKSLLLDIWRNWQKDGNTKILESQIISFYLRLFEVLKDNQAISNNISVIESHLITNFFSNSKAKKDAFMSIAKFEVNNPQIQHKAVNELIRVIHQLSPESSLRKRKRSRC
As for B4, in assay [3], the Survival entry is listed as “−” and the “survival effect on motoneurons” value is on record as “no discernable effect”.

B5: bNGF: bNGF (mouse) (protein, UniProt P01139 122-241, looked up)
Beta-nerve growth factor: SSTHPVFHMGEFSVCDSVSVWVGDKTTATDIKGKEVTVLAEVNINNSVFRQYFFETKCRASNPVESGCRGIDSKHWNSYCTTTHTFVKALTTDEKQAAWRFIRIDTACVCVLSRKATRRG
modifications: Beta-nerve growth factor
On to B5, for which, in assay [3], the Survival entry was “−” and the “survival effect on motoneurons” value was “no discernable effect”.

B6: NT-3: neurotrophic molecule of the NGF-BDNF gene family, produced by transfected Cos-cells (protein, UniProt P20783 139-257, looked up)
Neurotrophin-3: YAEHKSHRGEYSVCDSESLWVTDKSSAIDIRGHQVTVLGEIKTGNSPVKQYFYETRCKEARPVKNGCRGIDDKHWNSQCKTSQTYVRALTSENNKLVGWRWIRIDTSCVCALSRKIGRT
Turning to B6, in assay [3], the Survival result was “−” and the “survival effect on motoneurons” value is “did not appear to have a survival effect”.

B7: IL-6: IL-6 (mouse, rec.) (protein, UniProt P08505 25-211, looked up)
Interleukin-6: FPTSQVRRGDFTEDTTPNRPVYTTSQVGGLITHVLWEIVEMRKELCNGNSDCMNNDDALAENNLKLPEIQRNDGCYQTGYNQEICLLKISSGLLEYHSYLEYMKNNLKDNKKDKARVLQRDTETLIHIFNQEVKDLHKIVLPTPISNALLTDKLESQKEWLRTKTIQFILKSLEEFLKVTLRSTRQT
Regarding B7, in assay [3], the Survival entry was “−” and the “survival effect on motoneurons” value is recorded as “no discernable effect”.

The record behind these values is patent US6602687B1, “DNA encoding human ciliary neurotrophic factor and method for producing the protein encoded thereby” (Regeneron Pharmaceuticals, Inc., priority 1989, dated 2003).
